Counter-ions that a name gives are not always drawn.
Tests used:
[1] = test system: rabbit bullous keratopathy model; assay: Adhesion of injected cells to substrate after 24 hours in rabbit bullous keratopathy model, laminin with ROCK inhibitor; assay type: in vivo; settings: average; 24 hours after injection of cultured RCEC into anterior chamber; Y-27632 100 μM in both groups, with or without laminin 511-E8 fragments 2.1 nM
Description: A rabbit corneal endothelium was mechanically detached to make a bullous keratopathy model. Adhesion of injected cells to a substrate after 24 hours was compared between individuals injected with cultured rabbit corneal endothelial cells together with a ROCK inhibitor Y-27632 (+) (100 μM) into the anterior chamber and individuals injected with cells together with laminin 511-E8 fragments (2.1 nM) and Y-27632 (+) (100 μM). The rabbit was euthanized after 24 hours. Corneal tissue was extracted and subjected to phalloidin staining to evaluate the morphology and cell count of adhered cells.

[2] = test system: rabbit bullous keratopathy model; assay: Cultured corneal endothelium transplantation in rabbit bullous keratopathy model using laminin 511-E8 fragment; assay type: in vivo
Description: A rabbit corneal endothelium was mechanically detached using a 20 gauge silicone needle (Soft Tapered Needle; Inami & Co., Ltd., Tokyo, Japan) to make a bullous keratopathy model. The control group is a produced model that was not injected with cells. The RCEC group was injected with cultured rabbit corneal endothelial cells in the anterior chamber of the produced model and was maintained in a face-down posture for three hours. Further, the RCEC+E8 group was injected with cultured rabbit corneal endothelial cells, together with DMEM containing laminin 511-E8 fragments adjusted to a concentration of 2.1 nM, into the anterior chamber of the produced model and was maintained in a face-down posture for three hours.
The corneal thickness of an individual produced in FIG. 1 was measured sequentially with an ultrasound pachymeter (SP-2000; Tomey, Nagoya, Japan). When unmeasurable, 1200 μm, which is the measurable upper limit value, was used.
The histological examination in FIG. 3 was conducted as follows. The examination was checking normal functioning with immunostaining using Na^+/K^+-ATPase and ZO-1. This is for examining the functions of corneal endothelial cells, pumping function and barrier function. Na^+/K^+-ATPase and ZO-1 indicate normalcy of corneal endothelial cell functions, pumping function and barrier function, respectively. The approach is as follows.
After cells were immobilized, ZO-1 and Na^+/K^+-ATPase were used as function associated markers and immunostaining was applied for observation with a fluorescence microscope. For tissue staining inspection, cornea tissue extracted from a rabbit was immobilized with 4% formaldehyde for 10 minutes at room temperature (RT) and was incubated for 30 minutes with 1% bovine serum albumin (BSA). To find the phenotype of regenerated corneal endothelial tissue, immunohistochemical analysis was performed on an adhesion binding associated protein ZO-1 and pumping function associated protein Na^+/K^+-ATPase. ZO-1 and Na^+/K^+-ATPase were used as markers associated with cell functions. ZO-1 and Na^+/K^+-ATPase were stained using 1:200 dilution of ZO-1 polyclonal antibodies (Zymed Laboratories, Inc., South San Francisco, Calif.) and Na^+/K^+-ATPase monoclonal antibodies (Upstate Biotec, Inc., Lake Placid, N.Y.). 1:2000 dilution of Alexa Fluor®488 label (Life Technologies Corp., Carlsbad, Calif.) was used as the secondary antibody. The nucleus of cells was then stained with DAPI (Vector Laboratories, Inc., Burlingame, Calif.). The cell morphology was further stained with 1:400 dilution of Alexa Fluor® 488-conjugated phalloidin (Life Technologies Corp., Carlsbad, Calif.). The slide was then observed under a fluorescence microscope (TCS SP2 AOBS; Leica Microsystems, Welzlar, Germany).

[3] = test system: rabbit bullous keratopathy model; assay: Cultured corneal endothelium transplantation in rabbit bullous keratopathy model with or without Descemet's membrane detachment, laminin with ROCK inhibitor (4 groups); assay type: in vivo; settings: 14 days after transplantation, laminin 511-E8 fragment (2.1 nM) added group, with Y-27632 100 μM
Description: Tests were conducted with 4 groups of 4 rabbits, i.e., group injected with cultured corneal endothelial cells together with Y-27632 (+) (100 μM) after detaching corneal endothelial cells without detaching the Descemet's membrane, group injected with cells together with laminin 511-E8 fragments (2.1 nM) and Y-27632 (+) (100 μM) after detaching corneal endothelial cells without detaching the Descemet's membrane, group in which a bullous keratopathy model with detached Descemet's membrane was injected with cells together with Y-27632 (100 μM), and group in which a bullous keratopathy model with detached Descemet's membrane was injected with cells together with laminin 511-E8 fragments (2.1 nM) and Y-27632 (+) (100 μM).
The corneal thickness was measured with an ultrasound pachymeter (SP-2000; Tomey, Nagoya, Japan). When unmeasurable, 1200 μm, which is the measurable upper limit value, was used. Further, the ocular pressure was measured with a Tonovet (M. E. Technica, Tokyo).
The histological examination shown in FIG. 8 was conducted in the same manner as in Example 1.

[4] = test system: monkey bullous keratopathy model; assay: Cultured corneal endothelium transplantation in monkey bullous keratopathy model with laminin 511-E8 fragments; assay type: in vivo; settings: cynomolgus monkey
Description: A cynomolgus monkey corneal endothelium was mechanically detached using a 20 gauge silicone needle (Soft Tapered Needle; Inami & Co., Ltd., Tokyo, Japan) to make a bullous keratopathy model. In FIG. 9, […] cultured monkey corneal endothelial cells were injected with DMEM containing laminin 511-E8 fragments adjusted to a concentration of 2.1 nM into the anterior chamber of the bullous keratopathy model, which was maintained in a face-down posture for three hours. In FIG. 10, the Descemet's membrane was detached in a produced bullous keratopathy model and, similarly, 5.0×10^5 cultured monkey corneal endothelial cells were injected with DMEM containing laminin 511-E8 fragments adjusted to a concentration of 2.1 nM into the anterior chamber of the bullous keratopathy model, which was maintained in a face-down posture for three hours.
The corneal thickness was measured with an ultrasound pachymeter (SP-2000; Tomey, Nagoya, Japan). When unmeasurable, 1200 μm, which is the measurable upper limit value, was used.

[5] = test system: monkey bullous keratopathy model; assay: Laminin coating of corneal stroma in Descemet's membrane detached monkey bullous keratopathy model, then cell transplantation; assay type: in vivo; settings: cynomolgus monkey, laminin 511-E8 21 nM in anterior chamber for one hour (coating), then MCEC with 2.1 nM
Description: A cynomolgus monkey corneal endothelium was mechanically detached using a 20 gauge silicone needle (Soft Tapered Needle; Inami & Co., Ltd., Tokyo, Japan) to make a bullous keratopathy model. The Descemet's membrane was detached in the produced bullous keratopathy model. Laminin 511-E8 fragments were injected into the anterior chamber of the bullous keratopathy model at a concentration of 21 nM and the model was left standing for one hour. The corneal stroma exposed by detaching the Descemet's membrane was coated thereby in the living body. Subsequently, 5.0×10^5 cultured monkey corneal endothelial cells were injected with DMEM containing laminin 511-E8 fragments adjusted to a concentration of 2.1 nM into the anterior chamber of the bullous keratopathy model, which was maintained in a face-down posture for three hours as in Example 3.

[6] = test system: human corneal endothelial cells; assay: Adhesion of corneal endothelial cells (CellTiter-Glo, 24 hours after seeding); assay type: cell-based; settings: laminin 511-E8 fragments 2.1 nM added on seeding; relative to fragment free cells; HCEC
Description: The medium was completely removed from a culture dish culturing human corneal endothelial cells. The cells were washed twice with PBS (−). After washing, phosphate buffer was added, and the mixture was incubated for 5 minute at 37° C. (5% CO2). Subsequently, PBS (−) was removed and TrypLE™ Select (10×) (Life Technologies, A12177-01) was added. The mixture was incubated for 10 minutes at 37° C. (5% CO2). Opti-MEMI (Life Technologies, 31985-070) was then added to collect the cells. After collecting the cells, the cells were centrifuged for 3 minutes at 1200 rpm to make a cell suspension with Opti-MEM I. At this time, a laminin 511-E8 fragment free group was prepared as a control, as well as a group supplemented with laminin 511-E8 fragments so that the final concentration was 2.1 nM. At the same time, mouse IgG and integrin neutralizing antibody were added to the laminin 511-E8 fragment added group to adjust the final concentration to 2 μg/ml. After the adjustment, cells were seeded on a 96-well plate at 5000 cells/well and were incubated for 24 hours at 37° C. (5% CO2). After 24 hours of seeding, the medium was completely removed and the cells were washed twice with PBS (−). After washing, a medium and CellTiter-Glo Luminescent Cell Viability Assay (Promega Corporation, Madison, Wis.) were added at a ratio of 1:1. […]

p-FAK = assay: Western blot of cell adhesion associated protein Phospho-FAK in corneal endothelial cells; assay type: cell-based, human; settings: HCEC; laminin 511-E8 fragments 2.1 nM; three hours after seeding
Description: (§1) The medium was completely removed from a culture dish culturing human corneal endothelial cells. The cells were washed twice with PBS (−). After washing, phosphate buffer was added, and the mixture was incubated for 5 minute at 37° C. (5% CO2). Subsequently, PBS (−) was removed and TrypLE™ Select (10×) (Life Technologies, A12177-01) was added. The mixture was incubated for 10 minutes at 37° C. (5% CO2). Opti-MEMI (Life Technologies, 31985-070) was then added to collect the cells. After collecting the cells, the cells were centrifuged for 3 minutes at 1200 rpm to make a cell suspension with Opti-MEM I. At this time, a laminin 511-E8 fragment free group was prepared as a control, as well as a group supplemented with laminin 511-E8 fragments so that the final concentration was 2.1 nM. At the same time, mouse IgG and integrin neutralizing antibody were added to the laminin 511-E8 fragment added group to adjust the final concentration to 2 μg/ml. After adjustment, cells were seeded on a 12-well plate at 1×10^5 cells/well and proteins were collected after three hours of seeding. Western blot was used to detect Phospho-FAK (Cell Signaling TECHNOLOGY, 8556S), FAK (Cell Signaling TECHNOLOGY, 32855), and p-Paxillin (Cell Signaling TECHNOLOGY, 2541S). The dilution factor for each antibody was 1:1000. The densitometry was quantified using Image J.

p-Paxillin = assay: Western blot of cell adhesion associated protein p-Paxillin in corneal endothelial cells; assay type: cell-based, human; settings: HCEC; laminin 511-E8 fragments 2.1 nM; three hours after seeding
Description: as §1

[7] = rabbit cornea after transplantation of RCEC with laminin 511-E8 fragments 2.1 nM

**Q.** `C[C@@H](N)[C@H]1CC[C@H](C(=O)Nc2ccncc2)CC1` [Y-27632, (R)-(+)-trans-(4-pyridyl)-4-(1-aminoethyl)-cyclohexanecarboxamide dihydrochloride monohydrate, reference compound] was tested. Which adhering cell density [1] did it give?
**A.** 717.3 cells/mm^2

B1: laminin 511-E8 fragment: E8 fragment of human laminin α5β1γ1 (Nippi. Inc., 382-02413) (protein)
chain 1: AAEDAAGQALQQADHTWATVVRQGLVDRAQQLLANSTALEEAMLQEQQRLGLVWAALQGARTQLRDVRAKKDQLEAHIQAAQAMLAMDTDETSKKIAHAKAVAAEAQDTATRVQSQLQAMQENVERWQGQYEGLRGQDLGQAVLDAGHSVSTLEKTLPQLLAKLSILENRGVHNASLALSASIGRVRELIAQARGAASKVKVPMKFNGRSGVQLRTPRDLADLAAYTALKFYLQGPEPEPGQGTEDRFVMYMGSRQATGDYMGVSLRDKKVHWVYQLGEAGPAVLSIDEDIGEQFAAVSLDRTLQFGHMSVTVERQMIQETKGDTVAPGAEGLLNLRPDDFVFYVGGYPSTFTPPPLLRFPGYRGCIEMDTLNEEVVSLYNFERTFQLDTAVDRPCARSKSTGDPWLTDGSYLDGTGFARISFDSQISTTKRFEQELRLVSYSGVLFFLKQQSQFLCLAVQEGSLVLLYDFGAGLKKAVPLQPPPPLTSASKAIQVFLLGGSRKRVLVRVERATVYSVEQDNDLELADAYYLGGVPPDQLPPSLRRLFPTGGSVRGCVKGIKALGKYVDLKRLNTTGVSAGCTADLLVGRAMTFHGHGFLRLALSNVAPLTGNVYSGFGFHSAQDSALLYYRASPDGLCQVSLQQGRVSLQLLRTEVKTQAGFADGAPHYVAFYSNATGVWLYVDDQLQQMKPHRGPPPELQPQPEGPPRLLLGGLPESGTIYNFSGCISNVFVQRLLGPQRVFDLQQNLGSVNVSTGCAPALQAQTPGLGPRGLQATARKASRRSRQPARHPA
chain 2: LQHSAADIARAEMLLEEAKRASKSATDVKVTADMVKEALEEAEKAQVAAEKAIKQADEDIQGTQNLLTSIESETAASEETLFNASQRISELERNVEELKRKAAQNSGEAEYIEKVVYTVKQSAEDVKKTLDGELDEKYKKVENLIAKKTEESADARRKAEMLQNEAKTLLAQANSKLQLLKDLERKYEDNQRYLEDKAQELARLEGEVRSLLKDISQKVAVYSTCL
chain 3: EANDILNNLKDFDRRVNDNKTAAEEALRKIPAINQTITEANEKTREAQQALGSAAADATEAKNKAHEAERIASAVQKNATSTKAEAERTFAEVTDLDNEVNNMLKQLQEAEKELKRKQDDADQDMMMAGMASQAAQEAEINARKAKNSVTSLLSIINDLLEQLGQLDTVDLNKLNEIEGTLNKAKDEMKVSDLDRKVSDLENEAKKQEAAIMDYNRDIEEIMKDIRNLEDIRKTLPSGCFNTPSIEKP
**Q.** B1 was tested. Which corneal thickness ([2]; average on day 7, RCEC injected with laminin 511-E8 fragments 2.1 nM, ultrasound pachymeter) did it give?
**A.** 637 μm

**Q.** And the “N-cadherin (adherence junction) immunostaining” value [2, 7]?
**A.** normally expressed

**Q.** And the “Na+/K+-ATPase (pumping function) immunostaining” value [2, 7]?
**A.** expressed

**Q.** What about the “ZO-1 (tight junction, barrier function) immunostaining” value [2, 7] of the same molecule?
**A.** expressed

**Q.** What about the “cell morphology by phalloidin staining” value [2, 7] of the same molecule?
**A.** monolayer polygonal morphology

**Q.** And the “cornea appearance in pictures of anterior ocular segment” value ([2]; rabbit, cultured RCEC injected into anterior chamber with or without laminin 511-E8 fragments 2.1 nM, after one and two weeks)?
**A.** transparent and healed

**Q.** And the adhering cell density [1]?
**A.** 1662.8 cells/mm^2

**Q.** What about the “cell morphology by phalloidin staining” value [3] of the same molecule?
**A.** normal monolayer polygonal morphology

**Q.** What about the “cornea appearance (anterior ocular segment pictures)” value ([4]; Descemet's membrane detached, 5.0x10^5 MCEC with laminin 511-E8 2.1 nM, no coating) of the same molecule?
**A.** not transparent or healed

**Q.** And the “corneal thickness becoming thin” value ([4]; Descemet's membrane detachment group)?
**A.** did not become thin

**Q.** And the “healing of bullous keratopathy (anterior ocular segment pictures)” value ([4]; no Descemet's membrane detachment, 5.0x10^5 MCEC with laminin 511-E8 2.1 nM, up to Day 14)?
**A.** heal bullous keratopathy

**Q.** What about the “corneal thickness becoming thin” value ([4]; without Descemet's membrane detachment) of the same molecule?
**A.** it did

**Q.** What about the “cornea appearance (anterior ocular segment pictures)” value [5] of the same molecule?
**A.** transparent and healed

**Q.** What about the “number of adhering cells after 24 hours” value [6] of the same molecule?
**A.** 137.3±2.8%

**Q.** What about the p-FAK (p-FAK) of the same molecule?
**A.** promoted

**Q.** And the p-Paxillin (p-Paxillin)?
**A.** promoted

From US11633477B2, “Treatment of cornea using laminin” (KYOTO PREFECTURAL PUBLIC UNIVERSITY CORPORATION, priority 2014, dated 2023)
